Assay results as given in patent US12668636B2, “Pharmaceutical combinations” (BERLIN-CHEMIE AG, priority 2017, dated 2026).

Experiments:
LY75 = target: T1, LY75 (Homo sapiens, UniProt O60449); test: Immunohistochemistry using monoclonal antibody to LY75; conditions: FFPE Triple Negative breast cancer samples
T1 construct: from tissue; host or cells: FFPE triple negative breast cancer sections
Experimental: FFPE slides were deparaffinised in xylene (2×3 minutes) then rehydrated through 1:1 xylene: 100% ethanol (1×3 minutes), 100% ethanol (2×3 minutes), 95% ethanol (1×3 minutes), 70% ethanol (1×3 minutes), 50% ethanol (1×3 minutes), and tap water (1×3 minutes).
The LY75 antigen was retrieved using microwave heat, high power until boiling then low power for 10 minutes in 50 mL 1× citrate buffer in a Coplin jar. Slides were then left to cool to room temperature for a further 15 min, then washed in tap water, 3 minutes. Circles were drawn around each tissue section/TMA with a hydrophobic barrier pen and slides were then washed 3 times in PBS, 3 minutes each wash.
The primary anti-LY75 antibody was diluted in serum free protein block (SFPB) to obtain a solution with a concentration 20-fold greater than the final desired concentration (20 μg/mL for 1 μg/mL final). The secondary antibody, goat anti-human immunoglobulin G (IgG) antigen-binding fragment (Fab), was prepared similarly in SFPB to create a solution of equal concentration.
Equal volumes of primary and secondary antibodies were combined in a labelled tube, gently mixed, and incubated for 3 minutes at room temperature, resulting in a primary antibody concentration 10-fold greater than the desired final concentration (10 μg/mL for 1 μg/mL final). […]

LY75 on COLO205 cells = target: T2, LY75 on COLO205 cells (Homo sapiens, UniProt O60449); test: Competitive FACS binding analysis; conditions: blocking antibody from 250 nM, 3 fold serial dilution, conjugate 1 nM (FIG. 5b)
T2 construct: COLO205 cells (ATCC, catalog #CCL-222) were detached from tissue culture flasks; host or cells: COLO205
Experimental: COLO205 cells (ATCC, catalog #CCL-222) were detached from tissue culture flasks with Cell Stripper (Cellgro, catalog #MT-25-056CI). Cells were washed and resuspended in FACS buffer (PBS+2% FBS), neutralized with growth media, and counted. Cells were plated at 50,000 cells per well in a V Bottom 96-well plate. Cells were washed once with FACS buffer (PBS (Fisher, catalog #SH30028-03)+2% FBS). An anti-LY75-mAb (Selected from Example 1) or LY75_A1 was added to wells starting at 250 nM and diluted serially 3 fold and applied to the relevant wells for 45 minutes on ice. Test wells that required single or multiple staining steps were left in FACS buffer as appropriate to ensure the final staining was completed simultaneously for all conditions tested. Two wells were left unstained in FACS buffer as controls.
After the incubation with blocking antibody, cells were washed twice in FACS buffer. The cells were resuspended in FACS buffer containing the anti-LY75-mAb conjugated to MCC-DM1 (1 nM) and incubated on ice for 45 minutes. The cells were washed as above and resuspended in FACS buffer plus 1 ug/ml mouse anti-maytansine antibody and incubated in ice for 45 minutes. […] Mean fluorescence intensity of each sample was determined using a Guava EasyCyte Plus HT Flow Cytometer (96 well plate formats) and the raw data was analyzed using the Guava Cytosoft.

[1] = test system: Contiguous 8mer peptides of LY75 protein; test: Peptide microarray epitope characterization; assay type: binding; conditions: 1 μg/mL LY75_A1, scale 1-65535
Experimental: The peptide microarray analysis was performed by LC Sciences, Houston TX, in brief the method comprised the following steps:—Contiguous 8mer peptides of LY75 protein having one amino acid overlap spanning residues 216 to 1666 of the full length LY75 protein were synthesized and immobilized on a microarray chip. The chip comprised three panels such that the experiment was performed in triplicate. The microarray was addressed with LY75_A1 to identify the peptides to which the antibody bound. The binding assay was performed under the following conditions:—
The microarray comprising the contiguous peptides in triplicate was washed with 1 mL of binding buffer at 4° C. for 20 min. It was then incubated with 1 μg/mL LY75_A1 in binding buffer (pH 7.0) at 4° C. for 2 hrs. The array was again washed with 0.5 mL of washing buffer at 4° C. for 30 min then incubated with 25 ng/ml anti-human IgG Alexa 647 conjugate in binding buffer (pH 7.0) at 4° C. for 1 hr. The array was again washed with 0.5 mL of washing buffer at 4° C. for 30 min. The array was then Scanned at 635 nm and PMT 500 and the signal Intensity was recorded. The peptide was classed as detectable if it was present in at least ⅔ legal duplicates. The average signal intensity of the replicates was reported as the final signal intensity. Results

T1 sequence (O60449 28-1722): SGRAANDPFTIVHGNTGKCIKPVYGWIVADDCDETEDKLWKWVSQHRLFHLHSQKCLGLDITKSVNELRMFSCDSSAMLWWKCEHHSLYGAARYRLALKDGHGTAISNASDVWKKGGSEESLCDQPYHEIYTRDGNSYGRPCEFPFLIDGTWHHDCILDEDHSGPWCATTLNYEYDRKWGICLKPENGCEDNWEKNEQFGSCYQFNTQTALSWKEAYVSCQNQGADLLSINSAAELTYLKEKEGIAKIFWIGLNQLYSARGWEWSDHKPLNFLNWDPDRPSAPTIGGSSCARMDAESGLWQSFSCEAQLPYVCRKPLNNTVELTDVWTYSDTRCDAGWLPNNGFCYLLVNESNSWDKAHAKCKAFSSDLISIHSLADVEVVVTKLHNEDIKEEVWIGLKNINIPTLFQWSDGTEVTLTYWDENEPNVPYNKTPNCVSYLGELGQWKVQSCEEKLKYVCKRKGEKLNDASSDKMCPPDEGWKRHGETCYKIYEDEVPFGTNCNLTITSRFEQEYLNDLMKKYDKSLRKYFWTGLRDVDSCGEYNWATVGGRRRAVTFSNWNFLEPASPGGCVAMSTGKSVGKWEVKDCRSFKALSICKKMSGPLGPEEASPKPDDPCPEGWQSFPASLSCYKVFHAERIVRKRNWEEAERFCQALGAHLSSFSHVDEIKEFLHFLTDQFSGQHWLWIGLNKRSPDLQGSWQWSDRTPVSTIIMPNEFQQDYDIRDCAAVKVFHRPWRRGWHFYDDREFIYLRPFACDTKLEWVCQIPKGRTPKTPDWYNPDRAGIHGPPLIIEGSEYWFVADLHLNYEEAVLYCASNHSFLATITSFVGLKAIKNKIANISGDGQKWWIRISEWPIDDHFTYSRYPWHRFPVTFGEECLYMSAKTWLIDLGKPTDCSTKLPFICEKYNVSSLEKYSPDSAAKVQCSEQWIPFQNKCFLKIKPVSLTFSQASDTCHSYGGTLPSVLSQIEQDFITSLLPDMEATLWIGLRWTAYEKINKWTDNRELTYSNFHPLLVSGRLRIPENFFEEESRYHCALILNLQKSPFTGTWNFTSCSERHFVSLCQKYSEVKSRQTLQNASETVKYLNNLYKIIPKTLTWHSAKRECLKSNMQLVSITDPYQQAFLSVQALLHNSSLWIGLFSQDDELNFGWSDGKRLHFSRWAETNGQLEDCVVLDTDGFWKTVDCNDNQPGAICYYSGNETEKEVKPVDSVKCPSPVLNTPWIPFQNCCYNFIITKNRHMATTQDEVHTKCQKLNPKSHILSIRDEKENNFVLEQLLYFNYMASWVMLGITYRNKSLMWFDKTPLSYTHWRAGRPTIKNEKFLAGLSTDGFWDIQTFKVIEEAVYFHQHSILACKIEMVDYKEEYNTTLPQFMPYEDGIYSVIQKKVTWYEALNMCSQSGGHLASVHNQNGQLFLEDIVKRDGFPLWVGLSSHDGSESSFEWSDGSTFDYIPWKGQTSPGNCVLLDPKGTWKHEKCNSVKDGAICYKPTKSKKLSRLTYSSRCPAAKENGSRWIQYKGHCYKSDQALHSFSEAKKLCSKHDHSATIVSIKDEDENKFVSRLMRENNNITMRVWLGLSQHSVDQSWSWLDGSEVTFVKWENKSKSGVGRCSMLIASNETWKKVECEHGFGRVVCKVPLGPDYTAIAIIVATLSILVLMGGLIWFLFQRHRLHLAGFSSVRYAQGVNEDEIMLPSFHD
T2 sequence (O60449 28-1722): as above

sections exhibiting robust (+++) staining (LY75): 55%
sections showing positive staining (LY75): 77%
maximum signal seen for binding ([1]; background cut off 3000): 25000
B1: LY75_A1: anti-LY75 human monoclonal antibody; VH SEQ ID NO:1, VL SEQ ID NO:2 (antibody, listed as Homo sapiens, V domains shown)
VH: EVQLVESGGGLVKPGGSLRLSCAASGFTYSNAWMSWVRQAPGKGLEWVGRIKSKTDGGTTDYAAPVQGRFTISRDDSKNTLYLQMNSLKTEDTAVYYCTIFGVVSFDYWGQGTLVTVSS
VL: DVQMTQSPSSLSASVGDRVTITCRASQSISDYLSWYQQRPGKAPNLLIYAASNLKTGVPSRFSGSGSGTDFTLTISTLQPEDFATYYCQQSYRSPWTFGQGTKVEIKR
blocking of binding of anti-LY75-mAb-MCC-DM1 (LY75 on COLO205 cells): unable to block binding of anti-LY75-mAb-MCC-DM1
average signal for all spots on the array [1]: about 885
